Measured values: article PMC3101103 (The Journal of Cell Biology, 2011)
Values belong to the molecule of their own block, whether it stands above or below them.

How the values were obtained:
[1] = molecular target: ACP-TM with the C-terminal YFP fragment at its C terminus (rabbit | not stated); test: split reporter
[2] = molecular target: N-formyl peptide receptor (FPR), nonactivating mutant D71A (UniProt P21462); test: TIRF imaging, time course of surface-bound fluorescence
[3] = molecular target: N-formyl peptide receptor (FPR), nonactivating mutant D71A (UniProt P21462); test: single-molecule TIRF imaging, 2D-3D Scatchard plot
[4] = molecular target: the molecule itself; test: single-molecule TIRF imaging, duration of colocalization events
[5] = molecular target: the molecule itself; test: single-molecule TIRF imaging, spot-intensity histograms against expression level

corrected lifetime of BiFC dimers [1]: 163 ms
Molecule: ACP-TM with the N-terminal YFP fragment at its C terminus (from UniProt P42212 1-155)

kon [2]: 7.6e+06 M⁻¹ s⁻¹ | Kd [3]: 2.2 nM
Molecule: N-formyl-Nle-Leu-Phe-Nle-Tyr-Lys conjugated with Alexa Fluor 594 (peptide)

B1: N-formyl peptide receptor (FPR), nonactivating mutant D71A (receptor, UniProt P21462 1-350, looked up)
chain: METNSSLPTNISGGTPAVSAGYLFLDIITYLVFAVTFVLGVLGNGLVIWVAGFRMTHTVTTISYLNLAVAAFCFTSTLPFFMVRKAMGGHWPFGWFLCKFVFTIVDINLFGSVFLIALIALDRCVCVLHPVWTQNHRTVSLAKKVIIGPWVMALLLTLPVIIRVTTVPGKTGTVACTFNFSPWTNDPKERINVAVAMLTVRGIIRFIIGFSAPMSIVAVSYGLIATKIHKQGLIKSSRPLRVLSFVAAAFFLCWSPYQVVALIATVRIRELLQGMYKEIGIAVDVTSALAFFNSCLNPMLYVFMGQDFRERLIHALPASLERALTEDSTQTSDTATNSTLPSAEVELQAK
koff [4]: 11 s⁻¹ | stoichiometry N [5]: 2
